Laboratory results from article PMC12000561.
pKd: −log10 of the molar value.

System: MUTYH WT (MBP fusion) (Homo sapiens)
Experiment: EMSA
Conditions: EMSA: DNA mix 40 mM Tris pH 7.6, 2 mM EDTA, 200 mM NaCl (printed '200 M'), 20% glycerol, 0.2 mg/ml BSA, 2 mM DTT, 20 pM duplex, mixed 1:1 with enzyme in 20 mM …

In the case of “Duplex 2 fA:OG (substrate analog), 30 bp”, the Kd (table unit header missing, 2'-fluoro-2'-deoxyadenosine opposite 8-oxoguanine) was 32 pM.

Duplex 2 THF:OG (product analog), 30 bp showed a pKd (upper limit estimate, THF (abasic analog) opposite 8-oxoguanine) of over 11.00.
